The record followed here is US20230293685A1.

Test [1] deals with PD-1 (programmed cell death 1; CD279) on tumor infiltrating lymphocytes (human) (UniProt Q15116). In words: positive magnetic selection of TIL with M1H4-coupled microbeads.
For test [2] the target is unchanged. In words: positive magnetic selection of REP TIL with EH12.2H7-coupled microbeads; sorted cells stained with secondary mIgG1-PE and aCD3 FITC.
Test [3] shares this target. In words: flow cytometry, tumour digest M1156 stained with anti-PD-1 clone EH12.2H7; percent of CD3+ cells. In general terms: A flow cytometer gives signals particle by particle.
The target is the same in test [4]. In words: flow cytometry, tumour digest H3046 stained with anti-PD-1 clone EH12.2H7; percent of CD3+ cells.
Test [5] shares this target. In words: flow cytometry re-analysis of cells sorted on EH12.2H7 staining, tumour OV8074.
Test [6] has the same target. In words: flow cytometry, tumour digest OV8074 stained with anti-PD-1 clone EH12.2H7; percent of CD3+ cells.
Test [7] has the same target. In words: flow cytometry re-analysis of cells sorted on EH12.2H7 staining, tumour M1156.

Sequence of UniProt Q15116 (Q15116 25-288): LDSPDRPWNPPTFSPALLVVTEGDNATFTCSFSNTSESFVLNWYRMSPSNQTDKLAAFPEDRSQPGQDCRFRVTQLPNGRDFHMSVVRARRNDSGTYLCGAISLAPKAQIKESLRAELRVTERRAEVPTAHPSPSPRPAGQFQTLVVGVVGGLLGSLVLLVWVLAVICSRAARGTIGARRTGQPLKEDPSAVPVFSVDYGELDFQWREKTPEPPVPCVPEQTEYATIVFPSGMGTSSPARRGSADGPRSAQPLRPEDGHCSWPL

In test [1], “CD279 (PD-1) Monoclonal Antibody (Clone-MIH4), eBioscience” showed a purity of PD-1+ TIL after magnetic selection of more than 85%.

B1: anti-PD-1 antibody clone EH12.2H7 (antibody, from another filing, IgG1, V domains shown)
VH: QVQLQQSGAELAKPGASVQMSCKASGYSFTSSWIHWVKQRPGQGLEWIGYIYPSTGFTEYNQKFKDKATLTADKSSSTAYMQLSSLTSEDSAVYYCARWRDSSGYHAMDYWGQGTSVTVSS
VL: DIVLTQSPASLTVSLGQRATISCRASQSVSTSGYSYMHWYQQKPGQPPKLLIKFGSNLESGIPARFSGSGSGTDFTLNIHPVEEEDTATYYCQHSWEIPYTFGGGTKLEIK
Take B1: in test [2], the purity of PD-1+ TIL after magnetic selection was more than 85%. Also, the Pre-sort % PD-1+ (of CD3+) in test [3] turned out to be 93%; in test [4], 13%; in test [6] it was 70%. The Post-sort Purity % PD-1+ (of CD3+) in test [5] came out at 98%; in test [7] it was 100%.
